Changes are numbered by the printed parent chain.
T1: Human PTK7 Protein, His Tag (Acro Biosystems) (human, UniProt Q13308 31-704)
T1 construct: Bought His-tagged protein; also called CCK4; not shown: His tag
T1 sequence: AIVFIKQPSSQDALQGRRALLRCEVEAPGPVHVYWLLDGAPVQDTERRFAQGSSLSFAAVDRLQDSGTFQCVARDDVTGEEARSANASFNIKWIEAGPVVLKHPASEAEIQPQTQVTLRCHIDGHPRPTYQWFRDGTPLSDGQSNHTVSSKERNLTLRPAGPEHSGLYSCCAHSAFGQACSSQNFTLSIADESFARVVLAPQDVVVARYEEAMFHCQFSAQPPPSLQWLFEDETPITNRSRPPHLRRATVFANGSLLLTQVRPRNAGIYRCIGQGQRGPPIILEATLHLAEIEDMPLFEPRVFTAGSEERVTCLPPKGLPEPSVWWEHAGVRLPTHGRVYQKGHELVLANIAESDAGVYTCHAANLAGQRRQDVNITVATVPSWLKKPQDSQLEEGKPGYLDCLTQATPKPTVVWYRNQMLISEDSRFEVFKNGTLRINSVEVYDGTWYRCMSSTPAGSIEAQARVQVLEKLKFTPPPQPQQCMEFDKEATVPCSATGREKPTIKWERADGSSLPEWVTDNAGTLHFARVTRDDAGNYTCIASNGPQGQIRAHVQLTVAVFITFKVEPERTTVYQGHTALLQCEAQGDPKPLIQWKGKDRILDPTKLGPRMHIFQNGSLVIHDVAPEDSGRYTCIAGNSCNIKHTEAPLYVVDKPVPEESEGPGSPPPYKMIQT

B1: MYT11062 (antibody, V domains shown)
VH: EVQLVESGGGLVQPGGSLRLSCTASGLSLSSYWMSWVRQAPGKGLEWVGVISAGGNTYYANWAKGRFTISRDTSKNTVYLQMNSLRAEDTAVYFCARGDDGYTNHAYVSNLWGQGTLVTVSS
VL: EIVMTQSPSTLSASVGDRVIITCQASQSISSWLSWYQQKPGKAPKLLIYKASTLASGVPSRFSGSGSGAEFTLTISSLQPDDFATYYCQSYFDSTTIAFGQGTKLTVL
notes: MYT9361 HC variant
B2: MYT11088 (antibody, V domains shown)
VH: B1 VH with H105A
VL: B1 VL with A55H
notes: MYT9361 LC variant
B3: MYT11065 (antibody, V domains shown)
VH: B1 VH with H105A, V108H
VL: B1 VL
notes: MYT9361 HC variant
B4: MYT11067 (antibody, V domains shown)
VH: B1 VH with H105A, N110H
VL: B1 VL
notes: MYT9361 HC variant
B5: MYT11070 (antibody, V domains shown)
VH: B1 VH with D99A, H105A
VL: B1 VL
notes: MYT9361 HC alanine variant
B6: MYT11075 (antibody, V domains shown)
VH: B1 VH with H105A
VL: B1 VL with Q27H
notes: MYT9361 LC variant
B7: MYT11071 (antibody, V domains shown)
VH: B1 VH with D100A, H105A
VL: B1 VL
notes: MYT9361 HC alanine variant
B8: MYT11086 (antibody, V domains shown)
VH: B1 VH with H105A
VL: B1 VL with T53H
notes: MYT9361 LC variant
B9: MYT11066 (antibody, V domains shown)
VH: B1 VH with H105A, S109H
VL: B1 VL
notes: MYT9361 HC variant
B10: MYT11085 (antibody, V domains shown)
VH: B1 VH with H105A
VL: B1 VL with S52H
notes: MYT9361 LC variant
B11: MYT11087 (antibody, V domains shown)
VH: B1 VH with H105A
VL: B1 VL with L54H
notes: MYT9361 LC variant
B12: MYT11080 (antibody, V domains shown)
VH: B1 VH with H105A
VL: B1 VL with W32H
notes: MYT9361 LC variant
B13: MYT11072 (antibody, V domains shown)
VH: B1 VH with H105A
VL: B1 VL with Q24H
notes: MYT9361 LC variant
B14: MYT11074 (antibody, V domains shown)
VH: B1 VH with H105A
VL: B1 VL with S26H
notes: MYT9361 LC variant
B15: MYT11073 (antibody, V domains shown)
VH: B1 VH with H105A
VL: B1 VL with A25H
notes: MYT9361 LC variant
B16: MYT11064 (antibody, V domains shown)
VH: B1 VH with H105A, Y107H
VL: B1 VL
notes: MYT9361 HC variant
B17: MYT11083 (antibody, V domains shown)
VH: B1 VH with H105A
VL: B1 VL with K50H
notes: MYT9361 LC variant
B18: MYT11076 (antibody, V domains shown)
VH: B1 VH with H105A
VL: B1 VL with S28H
notes: MYT9361 LC variant

Target: T1, Human PTK7 Protein, His Tag (Acro …)
Experiment: BLI (Octet), antibody on anti-human Fc sensor, 50 nM PTK7; grade 2 = substantially similar binding relative to parent

binding result | Binder
binds | B1
binds | B2
binds | B3
binds | B4
binds | B5
binds | B6
binds | B7
binds | B8
binds | B9
binds | B10
binds | B11
binds | B12
binds | B13
binds | B14
binds | B15
binds | B16
binds | B17
binds | B18
